One assay has as its target HLA-A*02:03. Nature of the assay: IEDB peptide-MHC binding, cellular MHC/competitive/fluorescence; ≥ and ≤ were set here for values at or beyond the usual limits of such assays.
Assay [1] concerns the target HLA-A*68:02. The assay is described as above.
For assay [2], the target named is HLA-A*02:01. Described as above.
The target in the next assay is HLA-A*02:02. Nature of the assay: IEDB peptide-MHC binding, purified MHC/competitive/radioactivity; ≥ and ≤ were set here for values at or beyond the usual limits of such assays.
In assay [3] the target is HLA-A*02:06. Described as above.
Assay [4] concerns the target HLA-A*02:06. Nature of the assay: IEDB peptide-MHC binding, cellular MHC/competitive/fluorescence; ≥ and ≤ were set here for values at or beyond the usual limits of such assays.
Assay [5] concerns the target HLA-A*68:02. Nature of the assay: IEDB peptide-MHC binding, purified MHC/competitive/radioactivity; ≥ and ≤ were set here for values at or beyond the usual limits of such assays.
Assay [6] concerns the target HLA-A*02:01. The description is as above.
The mark [7] stands for this setting: source organism: Mammarenavirus brazilense.
Setting [8] is: source organism: Mammarenavirus choriomeningitidis.
Setting [9] is: source organism: Mammarenavirus guanaritoense.
Setting [10] is: source organism: Vaccinia virus WR.
[11] abbreviates: source organism: Influenza A virus.
[12] abbreviates: source organism: Mammarenavirus machupoense.

pIC50: −log10 of the molar value.

Regarding LNISGYNYSL, the pIC50 in the assay with HLA-A*02:03 (setting [7]) is 4.31; with HLA-A*68:02 [1] (setting [7]), 4.89; with HLA-A*02:01 [2] (setting [7]), 4.98; with HLA-A*02:02 (setting [7]), 7.11; with HLA-A*02:06 [3] (setting [7]) it was 5.96.

With LSYSQTMLL, the negative logarithm of the IC50 (pIC50) with HLA-A*02:03 (setting [8]) is 4.95; in the assay with HLA-A*68:02 [1] (setting [8]) it was 5.17; with HLA-A*02:01 [2] (setting [8]), 5.08; with HLA-A*02:02 (setting [8]), 5.68; with HLA-A*02:06 [3] (setting [8]), 5.43.

With MNNVVQALT, the pIC50 in the assay with HLA-A*02:03 (setting [9]) is 4.67; with HLA-A*02:06 [4] (setting [9]) it was ≤ 4.15; in the assay with HLA-A*02:01 [2] (setting [9]), 5.13; with HLA-A*68:02 [5] (setting [9]), 6.55; in the assay with HLA-A*02:02 (setting [9]) it was 5.64.

With NIEIMDKEQL, the pIC50 with HLA-A*02:03 (setting [10]) was 4.81; with HLA-A*02:06 [4] (setting [10]) it was 5.25; with HLA-A*68:02 [5] (setting [10]), 5.86; in the assay with HLA-A*02:02 (setting [10]), 5.46; with HLA-A*02:01 [6] (setting [10]), 5.33.

With NIVTDLENRL, the pIC50 with HLA-A*02:03 (setting [10]) is 4.76; in the assay with HLA-A*68:02 [1] (setting [10]), 4.88; with HLA-A*02:01 [2] (setting [10]) it was 4.71; with HLA-A*02:02 (setting [10]) it was 6.58; with HLA-A*02:06 [3] (setting [10]), 5.81.

For NLEELTTVFI, the pIC50 is 5.19 with HLA-A*02:03 (setting [10]); 4.91 with HLA-A*02:06 [4] (setting [10]); 5.13 in the assay with HLA-A*02:01 [2] (setting [10]); 5.89 with HLA-A*68:02 [5] (setting [10]); 6.38 in the assay with HLA-A*02:02 (setting [10]).

NQLDSSNKSM: the pIC50 is 4.52 with HLA-A*02:03 (setting [10]); 4.28 in the assay with HLA-A*68:02 [1] (setting [10]); 4.77 in the assay with HLA-A*02:01 [2] (setting [10]); 5.75 with HLA-A*02:02 (setting [10]); 6.20 with HLA-A*02:06 [3] (setting [10]).

Regarding NVSRVVECLT, the pIC50 with HLA-A*02:03 (setting [10]) is 4.84; with HLA-A*02:06 [4] (setting [10]), 5.00; with HLA-A*02:01 [2] (setting [10]), 5.02; in the assay with HLA-A*68:02 [5] (setting [10]) it was 6.26; with HLA-A*02:02 (setting [10]), 5.33.

Regarding PIPMSRLFM, the pIC50 with HLA-A*02:03 (setting [10]) is 5.04; in the assay with HLA-A*68:02 [1] (setting [10]) it was ≤ 4.15; with HLA-A*02:06 [4] (setting [10]) it was 4.50; with HLA-A*02:02 (setting [10]), 5.41.

As to QAIMDKNIIL, the pIC50 was 4.94 in the assay with HLA-A*02:03 (setting [11]); 5.05 in the assay with HLA-A*68:02 [1] (setting [11]); 4.87 in the assay with HLA-A*02:06 [4] (setting [11]); 6.03 with HLA-A*02:02 (setting [11]); 5.99 with HLA-A*02:01 [6] (setting [11]).

As for QIYLSDSDNI, the pIC50 with HLA-A*02:03 (setting [10]) was 4.71; with HLA-A*02:06 [4] (setting [10]), 4.83; with HLA-A*02:01 [2] (setting [10]), 4.60; with HLA-A*68:02 [5] (setting [10]), 6.18; with HLA-A*02:02 (setting [10]) it was 5.91.

Take RAGYSIVEL: the pIC50 with HLA-A*02:03 (setting [10]) was 5.27; in the assay with HLA-A*02:06 [4] (setting [10]), 5.30; with HLA-A*68:02 [5] (setting [10]), 5.92; in the assay with HLA-A*02:02 (setting [10]), 5.31; with HLA-A*02:01 [6] (setting [10]), 5.30.

For the sequence RSASGGVYL, the pIC50 was 4.84 with HLA-A*02:03 (setting [7]); 4.87 in the assay with HLA-A*02:06 [4] (setting [7]); 4.49 with HLA-A*02:01 [2] (setting [7]); 5.35 in the assay with HLA-A*68:02 [5] (setting [7]); 6.56 in the assay with HLA-A*02:02 (setting [7]).

As for RTRCKYVGCT, the pIC50 with HLA-A*02:03 (setting [10]) was 4.91; with HLA-A*02:06 [4] (setting [10]), 4.93; in the assay with HLA-A*02:01 [2] (setting [10]) it was 4.31; with HLA-A*68:02 [5] (setting [10]), 5.33; with HLA-A*02:02 (setting [10]) it was 6.83.

Consider SCDDVVFGI, for which the pIC50 with HLA-A*02:03 (setting [8]) is 4.30; with HLA-A*02:06 [4] (setting [8]), 4.84; with HLA-A*02:01 [2] (setting [8]), 5.25; in the assay with HLA-A*68:02 [5] (setting [8]) it was 6.51; with HLA-A*02:02 (setting [8]), 5.67.

Regarding SMGVYQILA, the negative-log IC50 (pIC50) with HLA-A*02:03 (setting [11]) is 5.15; in the assay with HLA-A*68:02 [1] (setting [11]) it was 4.77; in the assay with HLA-A*02:06 [4] (setting [11]) it was 4.98; with HLA-A*02:02 (setting [11]) it was 6.29; in the assay with HLA-A*02:01 [6] (setting [11]), 6.01.

Turning to SSWAVHWFS, the negative-log IC50 (pIC50) is ≤ 4.15 with HLA-A*02:03 (setting [12]); 4.33 with HLA-A*02:06 [4] (setting [12]); 5.10 with HLA-A*02:01 [2] (setting [12]); 5.39 with HLA-A*68:02 [5] (setting [12]); 5.33 with HLA-A*02:02 (setting [12]).

For TQSGALEVLM, the pIC50 is 4.81 with HLA-A*02:03 (setting [10]); 4.91 with HLA-A*68:02 [1] (setting [10]); 4.97 with HLA-A*02:01 [2] (setting [10]); 6.08 with HLA-A*02:02 (setting [10]); 5.65 with HLA-A*02:06 [3] (setting [10]).

In the case of TVGMLIYSM, the pIC50 in the assay with HLA-A*02:03 (setting [10]) is 5.22; with HLA-A*02:06 [4] (setting [10]) it was 5.04; with HLA-A*68:02 [5] (setting [10]), 5.75; in the assay with HLA-A*02:02 (setting [10]), 6.31; with HLA-A*02:01 [6] (setting [10]) it was 6.09.

As for TVSSFQDIL, the pIC50 in the assay with HLA-A*02:03 (setting [11]) is 5.05; in the assay with HLA-A*02:06 [4] (setting [11]), 4.86; with HLA-A*02:01 [2] (setting [11]), 4.39; with HLA-A*68:02 [5] (setting [11]) it was 6.07; in the assay with HLA-A*02:02 (setting [11]), 6.34.

In the case of VTTNNLLEQL, the pIC50 was 4.75 with HLA-A*02:03 (setting [10]); 5.23 in the assay with HLA-A*02:06 [4] (setting [10]); 4.67 with HLA-A*02:01 [2] (setting [10]); 5.53 in the assay with HLA-A*68:02 [5] (setting [10]); 5.33 in the assay with HLA-A*02:02 (setting [10]).

As to WLRAKRKPAM, the pIC50 with HLA-A*02:03 (setting [10]) was 4.70; with HLA-A*02:06 [4] (setting [10]), 4.92; with HLA-A*02:01 [2] (setting [10]) it was 4.65; with HLA-A*68:02 [5] (setting [10]), 5.54; with HLA-A*02:02 (setting [10]) it was 5.33.

Turning to YVHSLLYSSM, the pIC50 is 5.17 with HLA-A*02:03 (setting [10]); 5.14 in the assay with HLA-A*68:02 [1] (setting [10]); 4.54 in the assay with HLA-A*02:01 [2] (setting [10]); 5.66 in the assay with HLA-A*02:02 (setting [10]); 5.65 in the assay with HLA-A*02:06 [3] (setting [10]).

The term pIC50 denotes −log10 of the IC50, conventionally taken in molar units.
